Laboratory results reported in patent publication US20190077860A1 (EISAI R AND D MANAGEMENT, published 2019).
Substitutions are numbered along the chain they refer to.

T1: human EphB6 extracellular region-SEAP-His protein (human, UniProt O15197 32-594)
T1 construct: extracellular domain; also called hEphB6-SEAP-His
T1 sequence (looked up): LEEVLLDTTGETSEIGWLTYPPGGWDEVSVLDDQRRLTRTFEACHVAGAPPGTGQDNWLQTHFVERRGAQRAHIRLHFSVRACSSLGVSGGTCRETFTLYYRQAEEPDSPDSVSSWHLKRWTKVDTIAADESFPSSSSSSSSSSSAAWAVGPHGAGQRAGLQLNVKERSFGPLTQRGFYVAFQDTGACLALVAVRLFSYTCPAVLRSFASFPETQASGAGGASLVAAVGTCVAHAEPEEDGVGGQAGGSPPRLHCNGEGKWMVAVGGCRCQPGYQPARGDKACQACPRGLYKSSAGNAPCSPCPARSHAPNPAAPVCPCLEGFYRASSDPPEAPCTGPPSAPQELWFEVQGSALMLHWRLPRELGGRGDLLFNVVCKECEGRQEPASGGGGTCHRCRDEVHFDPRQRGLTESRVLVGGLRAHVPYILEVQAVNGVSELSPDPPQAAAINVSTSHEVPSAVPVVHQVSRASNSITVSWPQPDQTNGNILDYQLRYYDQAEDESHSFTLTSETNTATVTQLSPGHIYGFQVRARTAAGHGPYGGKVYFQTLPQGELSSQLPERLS

T2: human EphB4 extracellular region-SEAP-His protein (human, UniProt P54760 16-539)
T2 construct: extracellular domain; also called hEphB4-SEAP-His
T2 sequence (looked up): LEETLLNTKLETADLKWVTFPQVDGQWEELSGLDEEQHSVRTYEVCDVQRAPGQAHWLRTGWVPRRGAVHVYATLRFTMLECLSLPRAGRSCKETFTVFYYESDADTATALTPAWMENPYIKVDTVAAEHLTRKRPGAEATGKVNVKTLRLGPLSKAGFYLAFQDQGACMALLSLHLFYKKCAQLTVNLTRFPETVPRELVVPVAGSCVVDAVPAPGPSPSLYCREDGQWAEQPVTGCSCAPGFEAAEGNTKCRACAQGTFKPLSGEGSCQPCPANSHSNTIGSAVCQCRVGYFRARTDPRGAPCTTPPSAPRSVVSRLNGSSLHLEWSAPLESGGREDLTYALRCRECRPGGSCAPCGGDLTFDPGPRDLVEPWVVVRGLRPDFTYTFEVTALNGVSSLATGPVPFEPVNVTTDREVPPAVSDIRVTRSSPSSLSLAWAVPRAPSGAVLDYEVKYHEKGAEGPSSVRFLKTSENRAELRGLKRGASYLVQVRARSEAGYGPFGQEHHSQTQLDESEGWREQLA

B1: humanized antibody No. 136 (antibody, human IgG2)
heavy: QVQLVQSGSELKKPGASVKVSCKASGYTFTDYSMHWVRQAPGQGLKWMGWINTETGEPTYADDFKGRFVFSLDTSVSTAYLQISSLKAEDTAVYYCARIPLYYYGSRYWYFDVWGQGTTVTVSSASTKGPSVFPLAPSSRSTSESTAALGCLVKDYFPEPVTVSWNSGALTSGVHTFPAVLQSSGLYSLSSVVTVPSSNFGTQTYTCNVDHKPSNTKVDKTVERKSCVECPPCPAPPAAAPSVFLFPPKPKDTLMISRTPEVTCVVVDVSHEDPEVQFNWYVDGVEVHNAKTKPREEQFNSTFRVVSVLTVVHQDWLNGKEYKCKVSNKGLPAPIEKTISKTKGQPREPQVYTLPPSREEMTKNQVSLTCLVKGFYPSDIAVEWESNGQPENNYKTTPPMLDSDGSFFLYSKLTVDKSRWQQGNVFSCSVMHEALHNHYTQKSLSLSPG
light: EIVMTQSPATLSVSPGERATLSCRASENIYRNLAWYQQKPGQSPRLLIYAATNLADGIPARFSGSGSGTEYTLTISSLQSEDFAVYYCQHFWGTPWTFGQGTKVEIKRTVAAPSVFIFPPSDEQLKSGTASVVCLLNNFYPREAKVQWKVDNALQSGNSQESVTEQDSKDSTYSLSSTLTLSKADYEKHKVYACEVTHQGLSSPVTKSFNRGEC
notes: human Ig kappa; also called L2-4/HK2
B2: humanized antibody No. 94 (antibody, human IgG1, kappa)
heavy: QVQLVQSGSELKKPGASVKVSCKASGYTFTDYSMHWVRQAPGQGLKWMGWINTETGEPTYAQGFTGRFVFSLDTSVSTAYLQISSLKAEDTAVYYCARIPLYYYGSRYWYFDVWGQGTTVTVSSASTKGPSVFPLAPSSKSTSGGTAALGCLVKDYFPEPVTVSWNSGALTSGVHTFPAVLQSSGLYSLSSVVTVPSSSLGTQTYICNVNHKPSNTKVDKRVEPKSCDKTHTCPPCPAPPAAAPSVFLFPPKPKDTLMISRTPEVTCVVVDVSHEDPEVQFNWYVDGVEVHNAKTKPREEQFNSTFRVVSVLTVVHQDWLNGKEYKCKVSNKGLPAPIEKTISKTKGQPREPQVYTLPPSREEMTKNQVSLTCLVKGFYPSDIAVEWESNGQPENNYKTTPPMLDSDGSFFLYSKLTVDKSRWQQGNVFSCSVMHEALHNHYTQKSLSLSPG
light: B1 light
notes: human Ig kappa; also called L2-4/HA2
B3: humanized antibody No. 71 (antibody, human IgG1, kappa)
heavy: B2 heavy with V2I
light: B1 light
notes: human Ig kappa; also called L2-4/HA4
B4: humanized antibody No. 96 (antibody, human IgG1, kappa)
heavy: B2 heavy with Q62D, G63D, T65K
light: B1 light
notes: as for B1
B5: humanized antibody No. 137 (antibody, human IgG2)
heavy: B1 heavy with V2I
light: B1 light
notes: human Ig kappa; also called L2-4/HK4
B6: humanized antibody No. 73 (antibody, human IgG1, kappa)
heavy: B2 heavy with V2I, Q62D, G63D, T65K
light: B1 light
notes: as for B5
B7: humanized antibody No. 95 (antibody, human IgG1, kappa)
heavy: B2 heavy with K46E, Q62D, G63D, T65K
light: B1 light
notes: human Ig kappa; also called L2-4/HK1
B8: humanized antibody No. 93 (antibody, human IgG1, kappa)
heavy: B2 heavy with K46E
light: B1 light
notes: human Ig kappa; also called L2-4/HA1
B9: antibody A (antibody, mouse IgG1, kappa, V domains shown)
VH: QIQLVQSGPELKKPGETVKISCKASGYTFTDYSMHWVKQAPGKGLKWMGWINTETGEPTYADDFKGRFAFSLETSASTAYLQINNLKNEDTATYFCARIPLYYYGSRYWYFDVWGAGTTVTVSS
VL: DIQMTQSPASLSVSVGETVTITCRASENIYRNLAWYQQKQGKSPQLLVYAATNLADGVPSRFSGSGSGTQYSLKINSLQSEDFGSYYCQHFWGTPWTFGGGTKLEIKR
notes: mouse IgG1 heavy chain, kappa light chain; purified from hybridoma supernatant; also called anti-EphA4 monoclonal antibody; antibody A-IgG

Each binder was assayed against T1, human EphB6 extracellular … (assay: ELISA).

Binder | A450 as % of hEphA4-SEAP-His [%]
B1 | 5.5
B2 | 6.4
B3 | 5.3
B4 | 5.5
B5 | 5.7
B6 | 5.6
B7 | 4.7
B8 | 4.9

The binders below were run against T2, human EphB4 extracellular … (assay: ELISA).

Binder | A450 as % of hEphA4-SEAP-His [%]
B1 | 5.2
B2 | 6.5
B3 | 5.5
B4 | 5.5
B5 | 5.7
B6 | 5.7
B7 | 4.6
B8 | 5

The binders below were run against T3, human EphA2 extracellular region-SEAP-His protein (human, UniProt P29317 24-537) (assay: ELISA).
T3 construct: extracellular domain; also called hEphA2-SEAP-His
T3 sequence (P29317 24-537): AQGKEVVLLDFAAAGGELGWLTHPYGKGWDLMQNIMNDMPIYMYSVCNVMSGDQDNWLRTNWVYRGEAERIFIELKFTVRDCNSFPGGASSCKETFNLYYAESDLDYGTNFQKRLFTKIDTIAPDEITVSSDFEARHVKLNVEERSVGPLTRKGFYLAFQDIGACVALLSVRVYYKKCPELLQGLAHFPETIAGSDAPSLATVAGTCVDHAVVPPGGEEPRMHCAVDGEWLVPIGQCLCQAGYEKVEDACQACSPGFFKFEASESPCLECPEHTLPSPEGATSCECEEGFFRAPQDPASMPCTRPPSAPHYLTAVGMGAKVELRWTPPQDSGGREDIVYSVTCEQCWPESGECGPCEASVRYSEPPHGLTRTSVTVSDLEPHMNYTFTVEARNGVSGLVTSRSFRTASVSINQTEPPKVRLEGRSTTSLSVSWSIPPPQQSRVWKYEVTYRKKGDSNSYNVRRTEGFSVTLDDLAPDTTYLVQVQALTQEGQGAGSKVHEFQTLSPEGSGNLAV

Binder | A450 as % of hEphA4-SEAP-His [%]
B1 | 5.1
B2 | 6.4
B3 | 5.7
B4 | 5.3
B5 | 5.4
B6 | 5.7
B7 | 4.2
B8 | 5

Each binder was assayed against SEAP-His (UniProt P05187 23-511) (assay: ELISA).
Chain of SEAP-His (P05187 23-511): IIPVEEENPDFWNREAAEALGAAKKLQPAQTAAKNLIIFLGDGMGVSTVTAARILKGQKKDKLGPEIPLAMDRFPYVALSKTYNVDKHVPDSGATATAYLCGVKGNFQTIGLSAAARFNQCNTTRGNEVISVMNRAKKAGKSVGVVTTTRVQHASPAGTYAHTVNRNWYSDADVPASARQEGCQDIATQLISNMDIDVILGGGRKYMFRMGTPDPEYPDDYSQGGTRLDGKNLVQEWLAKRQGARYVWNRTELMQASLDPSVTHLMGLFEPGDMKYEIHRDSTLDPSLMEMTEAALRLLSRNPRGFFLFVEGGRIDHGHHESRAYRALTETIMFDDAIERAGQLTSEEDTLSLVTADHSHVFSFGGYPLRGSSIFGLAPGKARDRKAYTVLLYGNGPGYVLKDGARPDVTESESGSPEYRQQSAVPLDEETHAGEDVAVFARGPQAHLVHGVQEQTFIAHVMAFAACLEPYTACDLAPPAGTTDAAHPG

Binder | A450 as % of hEphA4-SEAP-His [%]
B1 | 5.2
B2 | 6.7
B3 | 5.6
B4 | 5.5
B5 | 5.9
B6 | 5.8
B7 | 4.4
B8 | 5

What follows are binders tested against T4, human EphA4 extracellular region-SEAP-His protein (human, UniProt P54764 20-547) (assay: SPR (Biacore A100), antibody A captured on a rat anti-mouse IgG1 CM5 chip, human EphA4 extracellular region-SEAP-His as analyte at 0.8-50 nM, 1:1 fit).
T4 construct: also called hEphA4-SEAP-His
Procedure: The binding affinity of antibody A obtained in Example 1 for mouse and human EphA4 was determined by surface plasmon resonance (SPR) using Biacore A100 (GE Healthcare). First, a rat anti-mouse IgG₁ antibody produced with a conventional procedure by immunizing rat with a mouse IgG₁ antibody was immobilized on sensor chip CM5. The immobilization of the rat anti-mouse IgG1 antibody on sensor chip CM5 was performed by the amine coupling method using N-hydroxysuccinimide (NHS) and N-ethyl-N′-(3-dimethylaminopropyl)carbodiimide hydrochloride (EDC). Ethanolamine was used in blocking (the sensor chip and the reagents for immobilization were all manufactured by GE Healthcare). The antibody was diluted with a buffer solution for immobilization (10 mM sodium acetate, pH 4.5) into 1 to 2 μg/mL and immobilized on the sensor chip according to the protocol attached to Biacore A100. Antibody A was diluted with a running buffer solution HBS-EP (GE Healthcare, BR-1001-88), injected onto a flow cell for 120 seconds, and captured (amount of the antibody captured: approximately 70 to 100 RU). Subsequently, mouse or human EphA4 extracellular region-SEAP-His serially diluted in the range of 50, 25, 12.5, 6.3, 3.1, 1.6, 0.8, and 0 nM using HBS-EP was added to the sensor chip for 120 seconds. […]

T4 sequence (P54764 20-547): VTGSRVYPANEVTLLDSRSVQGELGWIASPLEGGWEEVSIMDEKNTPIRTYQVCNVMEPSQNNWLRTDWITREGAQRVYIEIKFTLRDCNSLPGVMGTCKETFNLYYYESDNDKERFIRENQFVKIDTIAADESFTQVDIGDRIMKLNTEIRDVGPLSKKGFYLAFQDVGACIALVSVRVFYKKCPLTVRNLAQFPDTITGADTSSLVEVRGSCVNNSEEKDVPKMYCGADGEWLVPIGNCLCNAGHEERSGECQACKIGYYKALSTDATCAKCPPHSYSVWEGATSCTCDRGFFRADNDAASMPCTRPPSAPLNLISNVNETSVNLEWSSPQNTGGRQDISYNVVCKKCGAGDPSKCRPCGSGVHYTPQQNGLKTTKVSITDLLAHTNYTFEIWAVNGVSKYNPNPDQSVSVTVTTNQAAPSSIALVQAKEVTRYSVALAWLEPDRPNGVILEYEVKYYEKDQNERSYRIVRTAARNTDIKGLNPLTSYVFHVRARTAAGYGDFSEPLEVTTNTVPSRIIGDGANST

Binder | koff [s⁻¹] | kon [M⁻¹ s⁻¹]
B9 | 0.000152 | 210000
